38 molecules from paper PMC314469, “Protein Interaction Networks by Proteome Peptide Scanning” (PLoS Biology, 2004) can be followed below.

T1: amphyphisin SH3 (AMPH_HUMAN), P49418
T1 chain: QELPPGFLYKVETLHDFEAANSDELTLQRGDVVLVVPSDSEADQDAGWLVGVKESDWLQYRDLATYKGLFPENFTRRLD

The first assay has as its target T1, amphyphisin SH3 (AMPH_HUMAN), P49418. Nature of the assay: SPOT array.
EEIALERPEKEIRN [Q9H5F4 313-326]: the normalised SPOT signal, Boehringer light units (BLU); mean over the file's lines of this peptide amounted to 122.

AETRPHRPPGARDS [Q9H021 747-761] registered a normalised SPOT signal, Boehringer light units (BLU); mean over the file's lines of this peptide of 218.

Molecule AFVNFRRPEDARAA [Q96T37 218-231] had a normalised SPOT signal, Boehringer light units (BLU); mean over the file's lines of this peptide of 17.2.

EGQQLVRPKKLPLI [Q9H2U9 25-38] returned a normalised SPOT signal, Boehringer light units (BLU); mean over the file's lines of this peptide of 87.3.

The molecule EEVVPPRPPLPRSY [CAD38934 123-137] had a normalised SPOT signal, Boehringer light units (BLU); mean over the file's lines of this peptide of 109.

EGHRPRRPRGALPP [Q9UGQ7 111-124] showed a normalised SPOT signal, Boehringer light units (BLU); mean over the file's lines of this peptide of 27.1.

Consider EEKVPEKPPTPKES [Q9HDC5 18-32], for which the normalised SPOT signal, Boehringer light units (BLU); mean over the file's lines of this peptide came out at 25.

For EDEEPKRPLPRKQS [Q9BZ71 330-343], the normalised SPOT signal, Boehringer light units (BLU); mean over the file's lines of this peptide stood at 35.6.

As for EDPPPTRPSRPWRD [Q9UIG4 62-75], the normalised SPOT signal, Boehringer light units (BLU); mean over the file's lines of this peptide turned out to be 6800.

The molecule EGNKPQRPPPPRRP [Q04118 252-266] gave a normalised SPOT signal, Boehringer light units (BLU); mean over the file's lines of this peptide of 5630.

The molecule AFPRPKRPAPAQEA [Q9BQ84 248-261] showed a normalised SPOT signal, Boehringer light units (BLU); mean over the file's lines of this peptide of 145.

EEVPPHKPPTLPLD [Q9BXF3 1468-1482] yielded a normalised SPOT signal, Boehringer light units (BLU); mean over the file's lines of this peptide of 28.7.

EEAQIFRPLKFNTT [Q15029 572-585] displayed a normalised SPOT signal, Boehringer light units (BLU); mean over the file's lines of this peptide of 83.5.

Take EGEEPKRPPGISER [Q9NS96 504-517]: the normalised SPOT signal, Boehringer light units (BLU); mean over the file's lines of this peptide is 23.2.

EGIPFRRPSTYGIP [P78347 404-417] registered a normalised SPOT signal, Boehringer light units (BLU); mean over the file's lines of this peptide of 42.6.

Regarding EERPLRRPRPVQRT [Q9H7J2 535-548], the normalised SPOT signal, Boehringer light units (BLU); mean over the file's lines of this peptide was 836.

In the case of EEPKILRPPRRPRK [Q9NYS8 1484-1497], the normalised SPOT signal, Boehringer light units (BLU); mean over the file's lines of this peptide was 12700.

With EGNRPKKPPPPSAP [Q9NYR0 332-346], the normalised SPOT signal, Boehringer light units (BLU); mean over the file's lines of this peptide was found to be 53.4.

Molecule EDRLPRRPARSGGP [Q9UGK6 43-56] returned a normalised SPOT signal, Boehringer light units (BLU); mean over the file's lines of this peptide of 9000.

On to EGLAFRRPAEYDPK [O95444 171-184], for which the normalised SPOT signal, Boehringer light units (BLU); mean over the file's lines of this peptide came to 29.1.

EDFVPFRPRRSPRM [Q14202 277-290] returned a normalised SPOT signal, Boehringer light units (BLU); mean over the file's lines of this peptide of 20100.

With EERALRRPGHLYLL [Q8WZ07 124-137], the normalised SPOT signal, Boehringer light units (BLU); mean over the file's lines of this peptide is 38.2.

Take EDSIPKRPVSSIPL [Q8WTV4 223-236]: the normalised SPOT signal, Boehringer light units (BLU); mean over the file's lines of this peptide is 33.5.

As to EGAAPRRPGFWGSL [Q92988 19-32], the normalised SPOT signal, Boehringer light units (BLU); mean over the file's lines of this peptide was 29.7.

For EEEPPRRPRARSSE [O60301 1-14], the normalised SPOT signal, Boehringer light units (BLU); mean over the file's lines of this peptide amounted to 4.2.

In turn, EDVLLRRPKSTPDM [Q9NUD7 336-349] returned a normalised SPOT signal, Boehringer light units (BLU); mean over the file's lines of this peptide of 38.7.

With EEASFRRPHPDGDV [Q9UBD0 73-86], the normalised SPOT signal, Boehringer light units (BLU); mean over the file's lines of this peptide came out at 39.7.

Molecule EGPSPARPPRRRTS [Q9Y5L9 2452-2466] had a normalised SPOT signal, Boehringer light units (BLU); mean over the file's lines of this peptide of 16700.

EGHALRRPPPRWLL [Q8WUK7 5-18]: the normalised SPOT signal, Boehringer light units (BLU); mean over the file's lines of this peptide came to 66.6.

In turn, EESLPKRPLGKHSK [Q8WYQ9 81-94] showed a normalised SPOT signal, Boehringer light units (BLU); mean over the file's lines of this peptide of 32.4.

In turn, EDKALPRPIRPHRN [O75163 272-285] returned a normalised SPOT signal, Boehringer light units (BLU); mean over the file's lines of this peptide of 483.

For EDVKPFKPPLSDAE [Q9UJV1 144-158], the normalised SPOT signal, Boehringer light units (BLU); mean over the file's lines of this peptide was 41.5.

In turn, EGAVPRRPEDALLL [Q96ML3 90-103] gave a normalised SPOT signal, Boehringer light units (BLU); mean over the file's lines of this peptide of 72.5.

In the case of EFGLPGRPGRPGLN [P39059 904-917], the normalised SPOT signal, Boehringer light units (BLU); mean over the file's lines of this peptide stood at 282.

EEAALKRPEIISTV [Q9NU22 363-376] returned a normalised SPOT signal, Boehringer light units (BLU); mean over the file's lines of this peptide of 18.

As for EGISLRRPNSFGIA [O95444 608-621], the normalised SPOT signal, Boehringer light units (BLU); mean over the file's lines of this peptide came to 27.1.

The molecule EGSMLRRPRTSSQH [Q92538 1455-1468] registered a normalised SPOT signal, Boehringer light units (BLU); mean over the file's lines of this peptide of 115.

As for EEEELARPPREQGQ [Q14767 745-758], the normalised SPOT signal, Boehringer light units (BLU); mean over the file's lines of this peptide amounted to 154.

In another assay the target is endophilin SH3 (SH3G2_HUMAN), Q99962. The assay can be described thus: SPOT array.
Regarding EEIALERPEKEIRN [Q9H5F4 313-326], the normalised SPOT signal, Boehringer light units (BLU); mean over the file's lines of this peptide is 0.

Turning to AETRPHRPPGARDS [Q9H021 747-761], the normalised SPOT signal, Boehringer light units (BLU); mean over the file's lines of this peptide is 1440.

On to AFVNFRRPEDARAA [Q96T37 218-231], for which the normalised SPOT signal, Boehringer light units (BLU); mean over the file's lines of this peptide is 51.2.

With EGQQLVRPKKLPLI [Q9H2U9 25-38], the normalised SPOT signal, Boehringer light units (BLU); mean over the file's lines of this peptide turned out to be 70.

Molecule EEVVPPRPPLPRSY [CAD38934 123-137] showed a normalised SPOT signal, Boehringer light units (BLU); mean over the file's lines of this peptide of 8260.

As for EGHRPRRPRGALPP [Q9UGQ7 111-124], the normalised SPOT signal, Boehringer light units (BLU); mean over the file's lines of this peptide is 2060.

EEKVPEKPPTPKES [Q9HDC5 18-32] registered a normalised SPOT signal, Boehringer light units (BLU); mean over the file's lines of this peptide of 21.3.

EDEEPKRPLPRKQS [Q9BZ71 330-343]: the normalised SPOT signal, Boehringer light units (BLU); mean over the file's lines of this peptide turned out to be 15.6.

Regarding EDPPPTRPSRPWRD [Q9UIG4 62-75], the normalised SPOT signal, Boehringer light units (BLU); mean over the file's lines of this peptide stood at 382.

As to EGNKPQRPPPPRRP [Q04118 252-266], the normalised SPOT signal, Boehringer light units (BLU); mean over the file's lines of this peptide came to 18200.

On to AFPRPKRPAPAQEA [Q9BQ84 248-261], for which the normalised SPOT signal, Boehringer light units (BLU); mean over the file's lines of this peptide is 154.

Regarding EEVPPHKPPTLPLD [Q9BXF3 1468-1482], the normalised SPOT signal, Boehringer light units (BLU); mean over the file's lines of this peptide worked out at 59.8.

Take EEAQIFRPLKFNTT [Q15029 572-585]: the normalised SPOT signal, Boehringer light units (BLU); mean over the file's lines of this peptide was found to be 75.8.

In the case of EGEEPKRPPGISER [Q9NS96 504-517], the normalised SPOT signal, Boehringer light units (BLU); mean over the file's lines of this peptide worked out at 21.4.

Molecule EGIPFRRPSTYGIP [P78347 404-417] showed a normalised SPOT signal, Boehringer light units (BLU); mean over the file's lines of this peptide of 40.3.

Molecule EERPLRRPRPVQRT [Q9H7J2 535-548] registered a normalised SPOT signal, Boehringer light units (BLU); mean over the file's lines of this peptide of 678.

For the molecule EEPKILRPPRRPRK [Q9NYS8 1484-1497], the normalised SPOT signal, Boehringer light units (BLU); mean over the file's lines of this peptide is 508.

The molecule EGNRPKKPPPPSAP [Q9NYR0 332-346] gave a normalised SPOT signal, Boehringer light units (BLU); mean over the file's lines of this peptide of 2130.

Molecule EDRLPRRPARSGGP [Q9UGK6 43-56] had a normalised SPOT signal, Boehringer light units (BLU); mean over the file's lines of this peptide of 9090.

As to EGLAFRRPAEYDPK [O95444 171-184], the normalised SPOT signal, Boehringer light units (BLU); mean over the file's lines of this peptide is 39.5.

Molecule EDFVPFRPRRSPRM [Q14202 277-290] came in with a normalised SPOT signal, Boehringer light units (BLU); mean over the file's lines of this peptide of 2630.

EERALRRPGHLYLL [Q8WZ07 124-137]: the normalised SPOT signal, Boehringer light units (BLU); mean over the file's lines of this peptide is 14.7.

In the case of EDSIPKRPVSSIPL [Q8WTV4 223-236], the normalised SPOT signal, Boehringer light units (BLU); mean over the file's lines of this peptide was 55.6.

EGAAPRRPGFWGSL [Q92988 19-32] yielded a normalised SPOT signal, Boehringer light units (BLU); mean over the file's lines of this peptide of 1570.

Consider EEEPPRRPRARSSE [O60301 1-14], for which the normalised SPOT signal, Boehringer light units (BLU); mean over the file's lines of this peptide was determined as 26.3.

EDVLLRRPKSTPDM [Q9NUD7 336-349]: the normalised SPOT signal, Boehringer light units (BLU); mean over the file's lines of this peptide came to 16.2.

EEASFRRPHPDGDV [Q9UBD0 73-86] registered a normalised SPOT signal, Boehringer light units (BLU); mean over the file's lines of this peptide of 0.7.

As to EGPSPARPPRRRTS [Q9Y5L9 2452-2466], the normalised SPOT signal, Boehringer light units (BLU); mean over the file's lines of this peptide was determined as 5340.

EGHALRRPPPRWLL [Q8WUK7 5-18]: the normalised SPOT signal, Boehringer light units (BLU); mean over the file's lines of this peptide is 0.

With EESLPKRPLGKHSK [Q8WYQ9 81-94], the normalised SPOT signal, Boehringer light units (BLU); mean over the file's lines of this peptide was determined as 201.

In turn, EDKALPRPIRPHRN [O75163 272-285] showed a normalised SPOT signal, Boehringer light units (BLU); mean over the file's lines of this peptide of 22.8.

In turn, EDVKPFKPPLSDAE [Q9UJV1 144-158] displayed a normalised SPOT signal, Boehringer light units (BLU); mean over the file's lines of this peptide of 58.1.

EGAVPRRPEDALLL [Q96ML3 90-103] had a normalised SPOT signal, Boehringer light units (BLU); mean over the file's lines of this peptide of -0.

EFGLPGRPGRPGLN [P39059 904-917] yielded a normalised SPOT signal, Boehringer light units (BLU); mean over the file's lines of this peptide of 141.

As to EEAALKRPEIISTV [Q9NU22 363-376], the normalised SPOT signal, Boehringer light units (BLU); mean over the file's lines of this peptide came out at 15.2.

In turn, EGISLRRPNSFGIA [O95444 608-621] registered a normalised SPOT signal, Boehringer light units (BLU); mean over the file's lines of this peptide of 51.5.

For EGSMLRRPRTSSQH [Q92538 1455-1468], the normalised SPOT signal, Boehringer light units (BLU); mean over the file's lines of this peptide was 443.

With EEEELARPPREQGQ [Q14767 745-758], the normalised SPOT signal, Boehringer light units (BLU); mean over the file's lines of this peptide stood at 150.
